Measurements reported in publication PMC3251506.

Molecular target: Epstein-Barr virus glycoprotein H / glycoprotein L complex (gH/gL), wild type (Epstein-Barr virus) (UniProt P03231)
Assay: CELISA

Substance: Epstein-Barr virus glycoprotein 42 (gp42), wild type, soluble form in medium (from UniProt P03205) (natural protein)
- percent decrease of gH/gL binding to HEK 293 cells by soluble gp42: 50%
